Results: paper PMC7795492, “Protein Sensing Device with Multi-Recognition Ability Composed of Self-Organized Glycopeptide Bundle” (International Journal of Molecular Sciences, 2020)
“Also recorded” adds a separate entry of the source. Like-named read-outs stand apart in the source and are kept apart here.

Columns and labels:
[1] = system: PNA-induced glycopeptide bundle in DPPC bilayer membrane; assay: QCM binding isotherm, PNA-induced glycopeptide bundle; details: QCM method
From the text: (§1) We determined binding amounts of proteins to the induced glycopeptide bundles by QCM measurements. […] The molecular weights of PNA and ConA were 98,000 [27] and […] [33], respectively, assuming that they formed tetramers.
We attempted quantitative analysis of the binding isotherms obtained from the QCM and electrochemical measurements. The curves in Figure 5 and Figure 7 were obtained by curve-fitting the experimental values using the Langmuir binding isotherm. It can be seen that both curves are in good agreement with the experimental values. […] In the electrochemical measurement, the value of ΔI corresponds to the amount of the closed channel in the formed complex between the protein and glycopeptide bundle that acted as an ion channel. ΔImax corresponds to the total channel amount. Therefore, we used ΔI and ΔImax as the binding amount and saturated binding amount, respectively, for the Langmuir binding isotherm.
(§2) For the binding isotherm parameters obtained by the QCM measurements, the saturated binding amount, Wmax, for the protein used to induce the glycopeptide bundle was slightly larger, but a systematic relationship could not be seen in the binding constants, K. However, in the parameters obtained from the electrochemical method, the binding constant, K, to the target protein used to induce the glycopeptide bundle acting as a channel, was higher than that of other proteins, and the ΔImax value corresponding to the saturated binding amount was also remarkably larger. In addition, the selective detection of the target protein to the DPPC bilayer membrane with the target protein-induced glycopeptide bundle was evaluated from the ratio to the saturated binding amounts of other proteins. For example, the value of the selectivity of PNA to ConA, of 1.34, in the QCM method of the PNA-induced sensing membrane was obtained from Wmax, PNA/Wmax, ConA.
We previously reported that heating a vesicle containing a peptide above its gel–liquid crystal transition temperature, Tc, increases the fluidity of the lipid bilayer membrane and allows the peptide to easily diffuse laterally through the membrane. At this time, if a protein that specifically interacts with the sugar chains at the terminal of the glycopeptides is present, the glycopeptides are re-arranged in the membrane, and form specific binding site to the target protein on the glycopeptide bundle. The target protein was added to aqueous solution containing DPPC vesicle with glycopeptides and a spacer peptide in the bilayer membrane. The molar ratio of the added protein to the glycopeptides was 2. The Tc of DPPC is 41 °C [41]. The vesicle solution was incubated at 60 °C above Tc for 15 min to form a glycopeptide bundle. […]

[2] = system: ConA-induced glycopeptide bundle in DPPC bilayer membrane; assay: QCM binding isotherm, ConA-induced glycopeptide bundle; details: QCM method, Langmuir fit, 25 °C
From the text: as §1
We attempted quantitative analysis of the binding isotherms obtained from the QCM and electrochemical measurements. The curves in Figure 5 and Figure 7 were obtained by curve-fitting the experimental values using the Langmuir binding isotherm. It can be seen that both curves are in good agreement with the experimental values. […]
as §2, with “For example, the value of the selectivity of PNA to ConA, of 1.34, in the QCM method of the PNA-induced sensing membrane was obtained from Wmax, PNA/Wmax, ConA.” left out

[3] = system: PNA-induced glycopeptide bundle in DPPC bilayer membrane; type: binding; details: Electrochemical method
From the text: The response current waves were very similar to those derived according to Equation (7) based on the equivalent circuit in Figure A2. The equivalent circuit was a parallel circuit consisting of a capacitor (DPPC bilayer membrane; Cmemb), a resistor (glycopeptide bundle not bound to the target protein as an open channel; Ropen), the serial circuit of a capacitor (bound target protein on glycopeptide bundle; Cprotein), and a resistor (target protein bound to the glycopeptide bundle as a closed channel; Rclose). First, we verified whether the electrochemical properties of the DPPC bilayer membrane with a target protein-induced glycopeptide bundle could be expressed by the proposed equivalent circuit. […] The sensing membrane was used containing the PNA-induced glycopeptide bundle, and the added protein was PNA. In the simulation, the resistances, Ropen = 6.00 × 10^4 Ω and Rclose = 1.73 × 10^4 Ω, and capacitances, Cmemb = 1.00 × 10^−6 F and Cprotein = 3.00 × 10^−6 F, were held constant. Furthermore, x (=ΔI/ΔImax) was calculated from the ratio of the current changes, ΔI (Figure A4), between before and after the protein was added at peak voltage applied, and the saturated current changes, ΔImax (Table 2); this is described below.
(§3) We attempted to detect the protein using the sensing membrane using the electrochemical method. From the simulation, the value of the increase in the current before and after protein addition at the peak voltage, ΔI, was proportional to the fraction of the closed channel that is protein bound glycopeptide bundle (Figure A4).
We attempted quantitative analysis of the binding isotherms obtained from the QCM and electrochemical measurements. The curves in Figure 5 and Figure 7 were obtained by curve-fitting the experimental values using the Langmuir binding isotherm. […] In the electrochemical measurement, the value of ΔI corresponds to the amount of the closed channel in the formed complex between the protein and glycopeptide bundle that acted as an ion channel. ΔImax corresponds to the total channel amount. Therefore, we used ΔI and ΔImax as the binding amount and saturated binding amount, respectively, for the Langmuir binding isotherm [36].

[4] = system: ConA-induced glycopeptide bundle in DPPC bilayer membrane; assay: Electrochemical detection (peak current response, channel blockage), ConA-induced glycopeptide bundle; type: binding; details: Electrochemical method, Langmuir fit, ±5 mV triangular voltage, 11.24 Hz, 0.1 M HEPES-Tris pH 7.4, 0.1 M KCl
From the text: as §3
The curves in Figure 5 and Figure 7 were obtained by curve-fitting the experimental values using the Langmuir binding isotherm. […] In the electrochemical measurement, the value of ΔI corresponds to the amount of the closed channel in the formed complex between the protein and glycopeptide bundle that acted as an ion channel. ΔImax corresponds to the total channel amount. Therefore, we used ΔI and ΔImax as the binding amount and saturated binding amount, respectively, for the Langmuir binding isotherm [36].
At this time, if a protein that specifically interacts with the sugar chains at the terminal of the glycopeptides is present, the glycopeptides are re-arranged in the membrane, and form specific binding site to the target protein on the glycopeptide bundle. The target protein was added to aqueous solution containing DPPC vesicle with glycopeptides and a spacer peptide in the bilayer membrane. The molar ratio of the added protein to the glycopeptides was 2. […] The vesicle solution was incubated at 60 °C above Tc for 15 min to form a glycopeptide bundle. […]

[5] = cited from earlier work
From the text: This implies that the proteins with the same sugar binding sites can be selectively recognized if their 3D-structures are different. […] The PNA-induced glycopeptide bundle has a spatial arrangement of galactose corresponded to its binding sites in PNA. Two ... || We used PNA (Wako Pure Chemical Industrials, Ltd., Osaka, Japan) and ConA (CALBIOCHEM, San Diego, CA, USA) as the target proteins.

[6] = PNA-induced glycopeptide bundle in DPPC bilayer, Langmuir fit, 25 °C
[7] = PNA-induced bundle, ratio of ΔImax
[8] = PNA-induced glycopeptide bundle in DPPC bilayer, Langmuir fit, ±5 mV triangular voltage, 11.24 Hz, 0.1 M HEPES-Tris pH 7.4, 0.1 M KCl

B1: PNA: peanut lectin with specific binding site for galactose (protein, UniProt P02872 24-273, looked up)
Galactose-binding lectin: AETVSFNFNSFSEGNPAINFQGDVTVLSNGNIQLTNLNKVNSVGRVLYAMPVRIWSSATGNVASFLTSFSFEMKDIKDYDPADGIIFFIAPEDTQIPAGSIGGGTLGVSDTKGAGHFVGVEFDTYSNSEYNDPPTDHVGIDVNSVDSVKTVPWNSVSGAVVKVTVIYDSSTKTLSVAVTNDNGDITTIAQVVDLKAKLPERVKFGFSASGSLGGRQIHLIRSWSFTSTLITTTRRSIDNNEKKIMNMASA
- Selectivity of PNA to BSA ([1]; PNA-induced bundle, ratio of Wmax): 2.47
- Binding preference in QCM (in words) ([1]; PNA-induced glycopeptide bundle): preferentially bound
- Binding constant, K [1, 6]: 8.2e+08 M⁻¹
- Saturated binding amount, Wmax [1, 6]: 0.47 ng
- Binding constant, K [2]: 9.5e+08 M⁻¹
- Saturated binding amount, Wmax [2]: 0.21 ng
- Selectivity of PNA to BSA [3, 7]: 17.8
- Selectivity of PNA to ConA [3, 7]: 9.53
- Binding constant, K [3, 8]: 2.1e+09 M⁻¹
- Saturated current change, ΔImax [3, 8]: 0.41 μA
- Current response / recognition (in words) ([3]; PNA-induced sensing membrane): specific response; also recorded: very large current responses
- Binding constant, K [4]: 1.1e+09 M⁻¹
- Saturated current change, ΔImax [4]: 0.035 μA
- Sugar binding specificity [5]: specific binding sites for galactose
